Results reported in patent US20090083877A1, “Transcription Factors, DNA and Methods for Introduction of Value-Added Seed Traits and Stress Tolerance” (priority 2002, published 2009).
Entries after “also recorded” stand apart in the source; their conditions may differ.

Legend:
[1] = test system: ABA-inducible wheat Em promoter; test: Em-GUS reporter transactivation in transiently transformed rice protoplasts; format: cell-based, Oryza sativa; details: for Transactivation of Em-GUS expression by overexpressed effector: effector overexpressed alone, average of four replicate transformations
Method: Embryonic rice (Oryza sativa) callus cultures (Radon 6 from the International Rice Research Institute, Los Bafios, Phillipines) were obtained. Embryonic rice callus cultures were grown as suspensions in liquid culture as well as on phytagel plates containing MS medium supplemented with 2.0 mg/L 2,4-D. Cultures were propagated and digested for making protoplasts as previously described except that 10 mM HEPES (Sigma, St. Louis, Mo., USA), pH 5.6, was substituted for phosphate in the Krens'F medium, and 2% (weight/volume; w/v) cellulase YC, 0.35% (w/v) macerozyme, and 0.1% (w/v) pectolyase Y23 were used for overnight digestion (Karlan Research Products, Santa Rosa, CA, USA). Protoplasts were transformed with various mixtures of DNA reporter and effector constructs using polyethylene glycol precipitation. Transformed protoplasts were incubated with or without 100 μM ABA for 16 h in the dark in Krens solution before quantifying β-glucuronidase (GUS) and luciferase (LUC) reporter enzyme activities as previously described. ABA was dissolved and stored in absolute ethanol at −20° C. as a 0.1 M stock solution. Prior to use, required dilutions of ABA were made in Krens solution, and control samples received the same volume of solvent as in ABA treatments.
(§1) Plasmid pBM207 contains the wheat (Triticum aestivum) Early Methionine-labeled (Em) promoter driving the expression of GUS, encoded by uida from Escherichia coli. Plasmid pDH359 contains ABI5 cDNA driven by Ubiquitin promoter. Plasmid pCR349.13S contains the 35S promoter driving the VP1 sense cDNA. Plasmid pDirect2.6 contains the Ubi promoter in a reverse orientation and was used as control construct to balance the total amount of input plasmid DNA between various treatments. Plasmid pAHC 18 contains the Ubi promoter driving firefly (Photinus pyralis) LUC cDNA and was included in transformations to provide an internal reference for non-ABA-inducible transient transcription in reporter enzyme assays. ABF1-ABF4, AREB3, and DPBF4 were amplified by PCR using gene-specific primers from an Arabidopsis cDNA library (Minet et al. Plant J. 2:417 (1992)) and were cloned into plasmid pDH349 (Gampala et al. J. Biol. Chem. 277: 1689 (2002)) containing the maize Ubiquitin promoter and nopaline synthase 3′ termination signals.
Simultaneously, it has been shown that ABF2, ABF3 and ABF4 overexpression in transgenic Arabidopsis results in ABA hypersensitivity and other ABA-associated phenotypes such as altered ABA-inducible gene expression and glucose signaling, reduced transpiration, and enhanced drought tolerance. The functional roles of the ABI5-like family members ABF1-ABF4 in regulation of ABA-inducible gene expression in rice protoplasts were tested and the results are shown in FIG. 1. […] Protoplasts were transformed with Em-GUS and a “dummy” effector construct (pD2.6 containing only the Ubiquitin promoter used to drive effector expression) or co-transformed with a Ubi-ABF construct and treated with or without 100 μM ABA. The values shown in FIG. 1A are the average (±S.E.M.) of four replicate transformations.
Rice protoplasts were transformed with either Em-GUS alone or in pairwise combinations of Ubi-ABF3, Ubi-ABI5, or 35S-VP1. The values in FIG. 1B are the average (±S.E.M.) of four replicate transformations. ABF3 is a related member of the ABI5-family of bZIP transcription factors.

[2] = test system: ABA-inducible wheat Em promoter; test: Em-GUS reporter transactivation in transiently transformed maize mesophyll protoplasts; format: cell-based; details: for Transactivation of Em-GUS expression by overexpressed effector: maize mesophyll protoplasts, effector overexpressed alone
Method: Plant Materials. Maize mesophyll protoplasts were isolated from 20-hr illuminated leaves of 10 day old maize seedlings that had been kept in the dark at 25° C. The middle part of the second leaves (about 6 cm in length) was cut into 0.5 mm strips with a razor blade and digested in an enzyme solution containing 1% (w/v) cellulose RS, 0.1% (w/v) macerozyme R10 (Yakult Honsha, Nishinomiya, Japan), 0.6 M mannitol, 10 mM MES (pH 5.7), 1 mM CaCl2, 1 mM MgCl2, 10 mM β-mercaptoethanol, and 0.1% BSA (w/v) for 3 hr at room temperature. Protoplasts were released by shaking on a rotary shaker at 80 rpm for 10 min and were filtered through a 70 μm nylon filter. Protoplasts were collected by centrifugation at 100 g for 2 min, washed in cold 0.6 M mannitol solution, centrifuged, and resuspended at 2×10^6/mL in cold 0.6 M mannitol. Electroporation conditions were 400 V/cm, 200 μF, 10 msec, and two pulses with a Biorad GenePulser apparatus. Each sample contained 5×10^4 protoplasts and about 50 μg DNA in 0.3 mL of 0.6 M mannitol and 20 mM KCl.
as §1
The values in FIG. 2 are the average (±S.E.M.) of four replicate transformations.
To test the involvement of ABI3-Like B3 domain transcription factors in ABA signaling, ABA-inducible reporter gene transactivation by the B3 domain-containing RAV2 was assayed in maize mesophyll protoplasts transiently co-transformed with a full length cDNA under transcriptional control of the Ubiquitin promoter. Activation of Em-GUS reporter gene expression by RAV2, relative to non-ABA inducible Ubi-LUC reference reporter as internal control, and functional interactions of RAV2 with VP1, ABI5, and the ABI5-Like ABF3 were compared in protoplasts treated with or without 100 uM ABA (see FIG. 3).

B1: ABF4: Arabidopsis ABI5-like ABA-Response Element-Binding Factor, bZIP, At3g19290 (protein, listed as Arabidopsis thaliana)
chain: MGTHINFNNLGGGGHPGGEGSSNQMKPTGSVMPLARQSSVYSLTFDELQNTLGGPGKDFGSMNMDELLKSIWTAEEAQAMAMTSAPAATAVAQPGAGIPPPGGNLQRQGSLTLPRTISQKTVDEVWKCLITKDGNMEGSSGGGGESNVPPGRQQTLGEMTLEEFLFRAGVVREDNCVQQMGQVNGNNNNGFYGNSTAAGGLGFGFGQPNQNSITFNGTNDSMILNQPPGLGLKMGGTMQQQQQQQQLLQQQQQQMQQLNQPHPQQRLPQTIFPKQANVAFSAPVNITNKGFAGAANNSINNNNGLASYGGTGVTVAATSPGTSSAENNSLSPVPYVLNRGRRSNTGLEKVIERRQRRMIKNRESAARSRARKQAYTLELEAEIEKLKKTNQELQKKQAEMVEMQKNELKETSKRPWGSKRQCLRRTLTGPW
- Transactivation of Em-GUS expression by overexpressed effector [1]: sufficient for transactivation of the Em promoter; also recorded: sufficient to transactivate ABA-inducible Em-GUS expression
- Synergy with co-transformed VP1 on Em-GUS expression [2]: no functional interactions with VP1 and not
- Synergy with exogenous ABA on Em-GUS expression [2]: synergize with exogenous ABA
- Transactivation of Em-GUS expression by overexpressed effector [2]: sufficient for transactivation of the Em promoter; also recorded: sufficient to transactivate Em-GUS expression

B2: ABF3: Arabidopsis ABI5-like ABA-Response Element-Binding Factor, bZIP, At4g34000 (protein)
chain: MGSRLNFKSFVDGVSEQQPTVGTSLPLTRQNSVFSLTFDEFQNSWGGGIGKDFGSMNMDELLKNIWTAEESHSMMGNNTSYTNISNGNSGNTVINGGGNNIGGLAVGVGGESGGFFTGGSLQRQGSLTLPRTISQKRVDDVWKELMKEDDIGNGVVNGGTSGIPQRQQTLGEMTLEEFLVRAGVVREEPQPVESVTNFNGGFYGFGSNGGLGTASNGFVANQPQDLSGNGVAVRQDLLTAQTQPLQMQQPQMVQQPQMVQQPQQLIQTQERPFPKQTTIAFSNTVDVVNRSQPATQCQEVKPSILGIHNHPMNNNLLQAVDFKTGVTVAAVSPGSQMSPDLTPKSALDASLSPVPYMFGRVRKTGAVLEKVIERRQKRMIKNRESAARSRARKQAYTMELEAEIAQLKELNEELQKKQVEIMEKQKNQLLEPLRQPWGMGCKRQCLRRTLTGPW
- Synergy with exogenous ABA on Em-GUS expression ([1]; 100 μM ABA, 16 h): strong; also recorded: acted in synergy with ABA; also recorded: interacts synergistically
- Synergistic activity with VP1 relative to that of ABI5 with VP1 ([1]; co-expressed with VP1): about twice the synergistic activity seen between ABI5 and VP1
- Transactivation of Em-GUS expression by overexpressed effector [1]: sufficient for transactivation of the Em promoter; also recorded: transactivated the Em promoter; also recorded: sufficient to transactivate ABA-inducible Em-GUS expression
- Synergy with co-expressed VP1 on Em-GUS expression ([1]; pairwise co-transformation with 35S-VP1): synergized with each other and with ABA; also recorded: interacts synergistically
- Synergy with co-expressed ABI5 on Em-GUS expression ([1]; pairwise co-transformation with Ubi-ABI5): did not result in synergy
- Synergy with co-transformed VP1 on Em-GUS expression [2]: can synergize with co-transformed VP1
- Synergy with exogenous ABA on Em-GUS expression [2]: synergize with exogenous ABA
- Transactivation of Em-GUS expression by overexpressed effector [2]: sufficient for transactivation of the Em promoter; also recorded: sufficient for specific Em-GUS transactivation; also recorded: sufficient to transactivate Em-GUS expression

B3: ABF2: Arabidopsis ABI5-like ABA-Response Element-Binding Factor, bZIP, At1g45249 (protein, listed as Arabidopsis thaliana)
chain: MDGSMNLGNEPPGDGGGGGGLTRQGSIYSLTFDEFQSSVGKDFGSMNMDELLKNIWSAEETQAMASGVVPVLGGGQEGLQLQRQGSLTLPRTLSQKTVDQVWKDLSKVGSSGVGGSNLSQVAQAQSQSQSQRQQTLGEVTLEEFLVRAGVVREEAQVAARAQIAENNKGGYFGNDANTGFSVEFQQPSPRVVAAGVMGNLGAETANSLQVQGSSLPLNVNGARTTYQQSQQQQPIMPKQPGFGYGTQMGQLNSPGIRGGGLVGLGDQSLTNNVGFVQGASAAIPGALGVGAVSPVTPLSSEGIGKSNGDSSSLSPSPYMFNGGVRGRKSGTVEKVVERRQRRMIKNRESAARSRARKQAYTVELEAEVAKLKEENDELQRKQARIMEMQKNQETEMRNLLQGGPKKKLRRTESGPW
- Transactivation of Em-GUS expression by overexpressed effector [1]: no effect on Em-GUS expression
- Synergy with co-transformed VP1 on Em-GUS expression [2]: not
- Synergy with exogenous ABA on Em-GUS expression [2]: lower levels of ABA synergy compared to ABF3 and ABF4
